Experimental data from US20230374148A1, “BINDING MOLECULES THAT MULTIMERISE CD45” (UCB BIOPHARMA SRL, priority 2020, published 2023).
Read-outs that look alike come from different tables or passages of the source. Blank lines part the entries; values can stand above or below the molecule they belong to.

Molecular target: T1, CD45 D1-D4 (Homo sapiens, UniProt P08575)
T1 construct: extracellular domain of CD45 (UniProtKB—P08575, residue positions 225-573); TEV cleavage site (C); 10-His tag (C); made in house; host or cells: HEK293
T1 sequence (P08575 225-573): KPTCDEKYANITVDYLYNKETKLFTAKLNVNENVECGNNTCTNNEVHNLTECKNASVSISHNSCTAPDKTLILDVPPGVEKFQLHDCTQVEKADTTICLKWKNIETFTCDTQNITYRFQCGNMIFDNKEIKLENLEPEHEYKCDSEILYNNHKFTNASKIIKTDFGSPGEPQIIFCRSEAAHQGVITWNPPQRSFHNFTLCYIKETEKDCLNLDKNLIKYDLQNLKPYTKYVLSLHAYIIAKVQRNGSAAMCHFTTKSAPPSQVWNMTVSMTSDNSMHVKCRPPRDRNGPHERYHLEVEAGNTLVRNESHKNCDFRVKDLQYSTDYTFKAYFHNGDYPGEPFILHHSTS
Assay: Surface plasmon resonance (Biacore) affinity of Fabs
Format: binding
Settings: 25° C.; for Ka: association constant, CD45 D1-D4 50 nM to 0.05 nM
Procedure: Surface plasmon resonance (SPR) experiments were carried out at 25° C. on a Biacore 3000 system using CM5 sensor chips (GE Healthcare Bio-Sciences AB, Uppsala, Sweden) and HBS-EP running buffer (10 mM HEPES, 150 mM NaCl, EDTA 2 mM and 0.005% (v/v) P20, pH 7.4). 4133 rabbit Fab and 6294 mouse Fab were captured using polyclonal goat F(ab)2 fragment anti-rabbit F(ab)2, (Jackson Labs product code #111-006-047) and polyclonal goat F(ab)2 fragment anti-mouse F(ab)2, (Jackson Labs product code #115-006-072), respectively. Covalent immobilization of the capturing antibody was achieved by standard amine coupling chemistry to a level of 1000-3000 response units (RU).
CD45 D1-D4 was titrated over the captured purified antibody from 50 nM to 0.05 nM. Each assay cycle consisted of first capturing the antibody Fab fragment using a 1-min injection at a flow rate of 10 μl/min, followed by an association phase consisting of a 3-min injection of CD45 D1-D4 at a flow rate of 30 μl/min. The subsequent dissociation phase was monitored for at least 3 min. After each cycle, the capture surface was regenerated at a flow rate of 10 μl/min with a 1-min injection of 40 mM HCl followed by a 30-sec injection of 5 mM NaOH. A blank flow-cell was used for reference subtraction and buffer-blank injections were included to subtract instrument noise and drift. Kinetic parameters were determined using BIAevaluation software (version 4.1.1).

- Kd (SPR, read-out: affinity): 61 nM
- Kd (affinity constant, captured Fab, read-out: KD): 61 nM
- Ka (captured Fab): 570000 M⁻¹ s⁻¹
- Dissociation rate constant koff (captured Fab): 0.035 s⁻¹
B1: 4133 Fab: Fab fragment of rabbit anti-CD45 antibody 4133 (antibody)
heavy: QEQLVESGGGLVQPEGSLTLTCTASGFSFSGNYYMCWVRQAPGKGLEWIGCLYTGSSGSTYYASWAKGRFTISKTSSTTVTLQMTSLTAADTATYFCARDLGYEIDGYGGLWGQGTLVTVSSGQPKAPSVFPLAPCCGDTPSSTVTLGCLVKGYLPEPVTVTWNSGTLTNGVRTFPSVRQSSGLYSLSSVVSVTSSSQPVTCNVAHPATNTKVDKTVAPSTCSKP
light: AQVLTQTPSPVSAVVGGTVSISCQASQSVYNNNNLSWYQQKPGQPPKLLIYDASKLASGVPSRFKGSGSGTQFTLTISGVQCDDAATYYCLGGYYSSGWYFAFGGGTKVVVKRTPVAPTVLIFPPAADQVATGTVTIVCVANKYFPDVTVTWEVDGTTQTTGIENSKTPQNSADCTYNLSSTLTLTSTQYNSHKEYTCKVTQGTTSVVQSFNRGDC

- Kd (SPR, read-out: affinity): 0.085 nM
- Ka (captured Fab): 2.6e+06 M⁻¹ s⁻¹
- Dissociation rate constant koff (captured Fab): 0.00022 s⁻¹
B2: 6294 Fab: Fab fragment of mouse anti-CD45 antibody 6294 (antibody, V domains shown)
VH: EVQLVESGAELARPGASVKMSCKASGYTFTSYTMHWVKQRPGQGLEWIGYINPSSGYTEYNQKFKDKTTLTADKSSSTAYLQLSSLTSEDSAVYYCARVGDGFYPSWLAYWGQGTLVTVSS
VL: DIQMTQSPKFLLVSAGDRVTITCKASQSVRNDVAWYQQKPGQSPKLLIFYASKRYTGVPDRFTGSGYGTDFTFTISTVQAEDLAVYFCQQDYSSPTTFGGGTKLEIK
